Assay: soluble on expression in E. coli; label from the status in PepcDB or PDB records

## MIEQIGADSKSAENKQERKLYIETYGCQMNVADSEVVASVMQMDGYNLTDNVDEADTILVNTCSVRDNAEQKVLNRLAYYHSLRKKRRASSRLVIGVLGCMAERVKEELIREHHVDVVAGPDSYLDLPNLVGAAEQGEKAINVELSTQETYKDVMPLKMGGVHINGFVSIMRGCNNFCSYCIVPYTRGRERSREIESILNEVRDLKAKNFREVTLLGQNVNSYRYEQNGRIIRFPDLLAAVAEAVPDMRIRFTSPHPKDMDDEAIAVMARYRNICNHIHLPAQSGSDKMLRVMKRGYTRRWYLDRVAAIRRAIPDCAISSDLFCGFHSETEEDFEATLSLMEEVRYDSAFMFKYSERPGTYAARHLADDVPEEVKLSRLDRMIALQNRLSEESNKRDIGKTFEVLIEGFSKRSREQLFGRTQQNKVVIFDKNGHRVGQYIYVRIKDASSATLFGEVVETPTSE
  soluble on expression in E. coli: not soluble

## MGHHHHHHGGHMSLTSALPRPAPSPYARRKTALVIGAGFGGLALGIRLQSLGFDTTILERLDGPGGRAYQKRTPDGYVFDMGPTVLTVPHFIEELFALERDRAGLDAPDYPPEVLSGERVKEGVSGGPHTSRYVTLVPILPFYRIVFHDGTYFDYDGDPESTRRQIAELAPGDLAGYERFHADAEAIFRRGFLELGYTHFGDVPTMLRVVPDLLKLDAVRTLFSFTSKYFQSDKLRQVFSFETLLVGGNPLSVPAIYAMIHFVEKTWGIHYAMGGTGALVRGLVQKFEELGGAIRYGAGVDEVLVDGNLPGKRTARGVRLESGEELRADLVASNGDWANTYLKRVRPSARLVNSDLRVKAASESMSLLVVYFGFRGGDDLPLKHHNILLGPRYEALLSEIFGTKRLGEDFSQYLHVPTLTDPALAPAGHHAAYTLVPVPHNGSGIDWDVEGPKLAEAALADIERRGLIPGLRERLTHFEFITPDYFAGTLDSYLGNAFGPEPRLVQSAFFRPHNRSEDLHNFYLVGAGAQPGAGTPSVMMSAKMTARLIAEDFGIHADIREGGS
  soluble on expression in E. coli: soluble

## MGSDKIHHHHHHYLPDDEPKKLIVNAMMQTENNDNRIYLHYTGWTATTPVTDGIIHLYINGKLSETITAEDDYYPVKSIFRTGDKVKIEASSENGKYKAKAETRISAPLQIINVDTTYISLRDYNSWVGGKPVYDNYLRLNIQLKQPDIEAENTYYRLEIKQIFYSHKWHDGRDTLSIDTTYNYNYIYDTALTDGKPGHAIDEGFELIQKWNNYFGLFKSCYFKNREYNMTIDLKEDINYIHIDSQKAERYISIRFYSISESEHRYLYAMSSALDFDAENFIYAVPLIPNNIKGGIGIFSIANQVKYKLKEENCQDRY
  soluble on expression in E. coli: not soluble

## RQRSLSTSGESLYHVLGLDKNATSDDIKKSYRKLALKYHPDKNPDNPEAADKFKEINNAHAILTDATKRNIYDKYGSLGLYVAEQFGEENVNTYFV
  soluble on expression in E. coli: soluble

## MIQYYYTKKEWGVVMEKEELKILEELRRILSNKNEAIVILNNYFKGGVGKSKLSTMFAYLTDKLNLKVLMIDKDLQATLTKDLAKTFKVELPRVNFYEGLKNGNLASSIVHLTDNLDLIPGTFDLMLLPKLTRSWTFENESRLLATLLAPLKSDYDLIIIDTVPTPSVYTNNAIVASDYVMIPLQAEEESTNNIQNYISYLIDLQEQFNPGLDMIGFVPYLVDTDSATIKSNLEELYKQHKEDNLVFQNIIKRSNKVSTWSKNGITEHKGYDKKVLSMYKNVFFEMLERIIQLENEKE
  soluble on expression in E. coli: soluble

## ALVGDNLEQIDARLVNSLPLFKDQEGRDVNVRVGRYGPYLERQVGVSEDGEPEYQRANLSDSTTPDELTLELAEKLFATPQSGRELGRNPKNNRMIVAKEGRFGPYVTELVNDDERTEVEAKAEEIVAAEREAEDLQRAAEGKRAKNWGTKTAAAQKEKRIAQIIEETLKPSTASLFKTMEPSSVTLDEALQLLALPREVGVDPSDNEVITAQNGRYGPYLKKGSDSRTLASEDQIFSITLDEARRIYAEPKRRGRGATSQSVIKQLGDNDVSGKPMSVRDGRFGPYVTDGTTNASLRRGDDPTQLTEARANELLSERRAKEAADGGSSKKATKKASKKTTKRVAKAGARKKK
  soluble on expression in E. coli: not soluble

## MNQPSYTSGRQDVALLATTVGDAFDATVARHAEREALVVRHQRLRYSWRQLAERVDAYARAFIALGLRPGERLGIWAPNCAEWCITQFASAKVGAVLVNINPAYRSSELEYALKQSGCSWLICADAFKTSDYHAMLGDLLPELARARPGELASERLPELRGVISLAERAPAGFLHWQGLPGLAAAVGAEELRQRQASLQFDEPINIQYTSGTTGFPKGATLSHYNILNNGYMVGESLGLGAEDRLVIPVPLYHCFGMVMGNLGCVTHGSTMIYPAPSFDAEATLLAVAEERATALYGVPTMFIAELDHPRRREFDLSSLRTGIMAGATCPIEVMRRVIGDMHMAEVQIAYGMTETSPVSLQTGPDDGLELRVTTVGRTQPRLESKIVDQTGRVVPRGEIGELCTRGYSVMLGYWNDPQATAEAIDPARWMHTGDLAVMDDDGYVRIVGRSKDMIIRGGENIYPRELEEFFFTHPAVADVQVIGIPDERYGEEIVAWIKLHPGHHADDEQLRAFCKARIAHFKIPRHFKFVDEFPMTVTGKIQKFRMREISIEEIRLLALRQGR
  soluble on expression in E. coli: not soluble

## SEEDAGNGGFRKRMRASDEEGKGDSRDGISLDHTIENEEAETKLVASDEMELSIAQILDKIESFTQTVSNLLETGKTMLKELSNEFEERLIMIHKEHVEKWQDEIKELRLLDASNEETTSLLHNARYLIQNPSIEQ
  soluble on expression in E. coli: soluble

## MGSDKIHHHHHHDDNSYSLGDIWIAVATVVPEGNNVYYLRLDDGDKLWPAATNYPNYQPKPNQRALVNFTILADSTQSNLGGFSHYIKVNAIHNILTKSIAKNEGAANDSIYGTDPVSIYNNNMWIGDGYLNIYFETLWGGKTAHFINLIQPDAENDPYTLEFRHNAYDDPQYTIGAGRVAFNLSSLPDTKGETVDLVVNYWTSEGKQAYKLKYNSDKTKMEDTSQGYTNDSISNITDMK
  soluble on expression in E. coli: not soluble

## MDTPSLTPWLSIVGISEEGWLALTPIAQQCILQADILVGSDRHFDLLPSLPGAEQWRWGSPFSATITQILERRGQSICILASGDPMCYGVGSLLAQRLPLTELQILPAPSAFSLACSRLGWALPEVETLSLCGRDPALLNALLYPGAKILALSADRSTPATIAEQLCQQGWGSSRLTVLEHLGGPKERKISEIAEHWSQPTIASLNTVAIECHARDRDLIVPPRLTGLPDAAYHHDGQLTKREVRAITLAALAPLPGQLLWDVGAGCGSIGIEWMRSDRRCRAIAIEQHPQRLQIITQNAIALGVPNLQVVAGSAPATLSGLPQPDAIFIGGGVTAPGVLDQCWQALPMGGRLVVNAVTLESEQVVLAGQQRWGGDLIRVAVQRAEPIGRFLGWKSLAPITQWTVKKTALEHHHHHH
  soluble on expression in E. coli: not soluble

## MDRGVAQVASAPALGAGGRWFKSSRPDHFFIEVDKALLKEVKDMPIYRYVCEECGYETTVMHGINESPEVICEECGAKMKRTIGRVGIIFKGSGFYITDSRKSEKKKEAASASSEKKD
  soluble on expression in E. coli: not soluble

## MKSATSAQRPYQEVGAMIRDLIIKTPYNPGERLPPEREIAEMLDVTRTVVREALIMLEIKGLVEVRRGAGIYVLDNSGSQNTDSPDANVCNDAGPFELLQARQLLESNIAEFAALQATREDIVKMRQALQLEERELASSAPGSSESGDMQFHLAIAEATHNSMLVELFRQSWQWRENNPMWIQLHSHLDDSLYRKEWLGDHKQILAALIKKDARAAKLAMWQHLENVKQRLLEFSNVDDIYFDGYLFDSWPLDKVDA
  soluble on expression in E. coli: soluble

## MSVNALYDYKFEPKDKVENFHGMQLLYVYWPDHLLFCAPFALLVQPGMTFSALVDEILKPATAAHPDSAKADFLNAEWLLNDEPFTPKADASLKEQGIDHKSMLTVTTPGLKGMANAGY
  soluble on expression in E. coli: soluble

## MLRKADIKDLNACLSLFEQSVKTLCAKDYTKDQICAWIKIDRQQWEEKFKYDEIFVYEKRGKIASFISVKQEQKLLDLLFTHPDFVRQGLAQNLLDFILKTYLHNEIYTFASLSAKDFFLKNGFELIRENKVIKEGQNLKKILMKKDVIYKN
  soluble on expression in E. coli: not soluble

## MGSDKIHHHHHHMKTIKGPAIFLAQFMSDVAPFNNLKNICDWAASLGYKGVQIPSWDVRCIDLQKAAESKTYCDEIKAVVHAAGLEITELTSHLQGQLVASHAAYDAAFDVFAPAAIHNNPKARAEWATQQLMYAAKASQNLGLTAHATFSGALLWHTMYPWPQRKAGSVEEGFTELAKRWLPILNAFDQAGVDLCYEIHPGEDLHDGITFERFLKATDNHSRAHILYDPSHFVLQQLNYLDYIDIYHEHIKMFHVKDAEFNPSGRAGVYGGYQDWIDRPGRFRSLGDGQVNFKAIFSKLTQYDFPGWAVLEWECCLKHPEDGAREGAAFIKNHIIRVADKAFDDFAG
  soluble on expression in E. coli: not soluble

## MGSDKIHHHHHHTACETDNDSNPILNEPDTFTLNTPAYAANNVYDLKNAQTVELTCSQPDYGFPAATTYTVQASFEQDFIEATDESKANYTVLESTSPTAKINVDASELNNALLDLWTAVNGEQAELPTEPVAVYIRLKANITSSGKGVCFSNVIELPNVLISKSTSSLTPPKTMFIVGSMLDTDWKVWKPMAGVYGMDGQFYSMIYFDANSEFKFGTKENEYIGINDNRVTVTDKAGAGVSGSDNFVVENAGWYLFYVKAAVKGDDYQFTITFYPAEVYLFGNTTGGSWAFNDEWKFTVPATKDGNFVSPAMTASGEVRMCFKTDLDWWRTEFTLHDGEIFYRDFNLIDSWTEKGDGYSIQGSAGNVIHLNFTAGTGEKK
  soluble on expression in E. coli: not soluble

## MTPTPLHSITPFSMLDFPSMLSCILWFSGCNLACSYCYNPEFLKESGKIDLEGLLSFLRSRVGLLEGVVFSGGEATLFAGLPLWMEEVRSLGFKIKLDTNGTNPAMLKELLQKGYLDYVAMDFKGKEERFGMITGREFYGRFLESLEILLSSSIPFEIRTTVHSYLLQEEDIAEMAALLKERG
  soluble on expression in E. coli: not soluble

## MSLNTWNELTVHVNREAEEAVSNLLIETGSQGVAISDSADYLGQEDRFGELYPEVEQSDMIAITAYYPDTLDIEAVKADLADRLANFEGFGLATGSVNLDSQELVEEDWADNWKKYYEPARITHDLTIVPSWTDYEAKAGEKIIKMDPGMAFGTGTHPTTKMSLFALEQVLRGGETVIDVGTGSGVLSIASSLLGAKDIYAYDLDDVAVRVAQENIDMNPGTENIHVAAGDLLKGVQQEVDVIVANILADILIHLTDDAYRLVKDEGYLIMSGIISEKWDMVRESAEKAGFFLETHMVQGEWNACVFKKTDDISGVIGGEGHHHHHH
  soluble on expression in E. coli: soluble

## MSLVEVYLNSSSMIPIDRYYEYDIYDLVIEAYKNFEGEYDVNSIDLIVVANAYSQKLNNASLIAPKIAEKIGKPNVPSIKVDNADASGGAALLTAYSLIKSNMVNSVLIVGVEKQSDYPSKYLYDAISTNLDDYMFYNGISSHSVAALLMRQYMKRYGVDRNYFANWAIKMHKNATENPFAYLRFQVDLNTVINSQIISDPVRLFDVGARADGAAILLLSNNKTESAVKINKILSAQARYDFSPSLPSVRMLRDKLELKFSERTGIDIHDSYSIMAALMLEEAGIFESGKSLHNLDSVNVNLGGGLKARGHVGGASAIYQLAEAHMQLIGSFKGKKASVDNYIVISSDDLGMVSYGINLSREGHHHHHH
  soluble on expression in E. coli: not soluble

Reference: the DeepSol protein solubility set
